Reference: article PMC2213499 (The Journal of Experimental Medicine, 2000)

Target: Complement C1q (human, UniProt P02745 23-245; P02746 28-253; P02747 29-245)
Experiment: ELISA

Complement C1q, sequence (P02745 23-245, chain 1 of 3): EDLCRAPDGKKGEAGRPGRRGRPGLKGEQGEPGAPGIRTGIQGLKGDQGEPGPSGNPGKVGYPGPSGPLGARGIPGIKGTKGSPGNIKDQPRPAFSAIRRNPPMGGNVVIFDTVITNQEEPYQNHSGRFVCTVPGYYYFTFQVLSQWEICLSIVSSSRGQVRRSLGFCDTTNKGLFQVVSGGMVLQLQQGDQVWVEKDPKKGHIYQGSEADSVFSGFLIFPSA
Complement C1q, sequence (P02746 28-253, chain 2 of 3): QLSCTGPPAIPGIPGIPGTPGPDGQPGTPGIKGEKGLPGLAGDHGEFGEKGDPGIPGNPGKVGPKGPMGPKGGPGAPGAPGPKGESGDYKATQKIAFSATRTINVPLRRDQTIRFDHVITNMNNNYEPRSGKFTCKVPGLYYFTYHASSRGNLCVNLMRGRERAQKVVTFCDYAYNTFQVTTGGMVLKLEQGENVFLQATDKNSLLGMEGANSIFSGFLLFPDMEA
Complement C1q, sequence (P02747 29-245, chain 3 of 3): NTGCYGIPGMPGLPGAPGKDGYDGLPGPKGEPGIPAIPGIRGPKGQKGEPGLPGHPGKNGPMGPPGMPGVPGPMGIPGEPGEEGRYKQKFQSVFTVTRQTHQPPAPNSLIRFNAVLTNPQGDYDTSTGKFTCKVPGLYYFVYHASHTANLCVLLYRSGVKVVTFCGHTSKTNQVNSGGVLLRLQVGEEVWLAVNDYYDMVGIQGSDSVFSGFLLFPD

B1: Recombinant soluble complement receptor 1 (sCR1) (domain or fragment)
chain: not shown
modifications: 125I in the radioligand assays with immobilised MBL; unlabelled elsewhere
  binding result: binds
